In US6106844A, “Immunomodulatory peptides of vespid antigen 5” (The Rockfeller University, priority 1998, dated 2000):

Experiments:
r-Dol m 5.02 = molecular target: T1, r-Dol m 5.02 (Dolichovespula maculata, UniProt P10737); assay: Antibody response by direct ELISA of mice immunized with recombinant white faced hornet Ag5, wells coated with r-Dol m 5.02; type: in vivo; conditions: for Half maximal Ab titer r-Dol m 5.02: week five sera after three i.p. immunizations with rDol m 5.02 and alum; for antibody responder status: alum as adjuvant
T1 construct: made in house
T1 sequence (P10737 11-215): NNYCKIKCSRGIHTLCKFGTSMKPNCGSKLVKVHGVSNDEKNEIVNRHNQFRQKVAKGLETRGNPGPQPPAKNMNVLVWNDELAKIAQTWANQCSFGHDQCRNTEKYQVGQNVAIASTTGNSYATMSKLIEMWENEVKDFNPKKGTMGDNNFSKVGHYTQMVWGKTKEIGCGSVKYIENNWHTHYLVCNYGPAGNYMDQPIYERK
Procedure: (§1) Antibody response in mice of different haplotypes to recombinant hornet Ag5. Five strains of mice were immunized with recombinant (r) white faced hornet Ag5 and alum as adjuvant. […] The antibody titers (the reciprocal of the dilution yielding 50% of maximum signal extrapolated from ELISA curves in wells coated with r-Dol m 5.02 or n-Dol m 5.01) of these sera for n-(natural) and r-Ag5 are given in Table 3.
(§2) *Sera are from week five bleeding after three intraperitoneal
(§3) immunizations with 0.2 ml of 10 μg/ml rDol m 5.02 and alum (5 μg/ml
(§4) in 0.05 m sodium phosphate buffer, pH 6.2, on weeks 0, 2, and 4.

n-Dol m 5.01 = molecular target: T2, n-Dol m 5.01 (Dolichovespula maculata, UniProt P10736); assay: Antibody response by direct ELISA of mice immunized with recombinant white faced hornet Ag5, wells coated with n-Dol m 5.01; type: in vivo; conditions: week five sera after three i.p. immunizations with rDol m 5.02 and alum
T2 construct: from tissue; host or cells: natural protein
T2 sequence (P10736 24-227): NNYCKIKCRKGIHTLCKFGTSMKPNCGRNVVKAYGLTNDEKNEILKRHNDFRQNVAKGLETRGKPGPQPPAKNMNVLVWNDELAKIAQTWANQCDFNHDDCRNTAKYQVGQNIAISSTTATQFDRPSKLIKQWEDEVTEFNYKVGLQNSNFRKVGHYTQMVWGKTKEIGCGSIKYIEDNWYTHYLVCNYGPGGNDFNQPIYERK
Procedure: as §1, §2, §3, §4

B1: r-Ag5: recombinant white faced hornet (Dolichovespula maculata) antigen 5 form 2, Dol m 5.02 (protein)
chain: T1 sequence (P10737 11-215)
Half maximal Ab titer r-Dol m 5.02 (r-Dol m 5.02; ASW/Sn mice (haplotype s)): 1 × 10^5 | Half maximal Ab titer r-Dol m 5.02 (r-Dol m 5.02; BALB/c byj mice (haplotype d)): 8 × 10^4 | antibody responder status (r-Dol m 5.02; BALB/v byj, ASW/Sn, C3H/He, and P/J mice): high antibody responders | Half maximal Ab titer r-Dol m 5.02 (r-Dol m 5.02; C3H/He mice (haplotype k)): 6 × 10^3 | Half maximal Ab titer r-Dol m 5.02 (r-Dol m 5.02; C57B1/6 mice (haplotype b)): 1 × 10^2 | antibody responder status (r-Dol m 5.02; C57B1/6 mice): poor antibody responder | Half maximal Ab titer r-Dol m 5.02 (r-Dol m 5.02; P/J mice (haplotype p)): 2 × 10^4 | Half maximal Ab titer n-Dol m 5.01 (n-Dol m 5.01; ASW/Sn mice (haplotype s)): 1 × 10^5 | Half maximal Ab titer n-Dol m 5.01 (n-Dol m 5.01; BALB/c byj mice (haplotype d)): 4 × 10^4 | Half maximal Ab titer n-Dol m 5.01 (n-Dol m 5.01; C3H/He mice (haplotype k)): 2 × 10^3 | Half maximal Ab titer n-Dol m 5.01 (n-Dol m 5.01; C57B1/6 mice (haplotype b)): 2 × 10^1 | Half maximal Ab titer n-Dol m 5.01 (n-Dol m 5.01; P/J mice (haplotype p)): 1 × 10^4
